Patent US20140329228A1 (Ushio Denki Kabushiki Kaisha, priority 2011, published 2014)
Marks after values point to notes of the source that are not given here.

How the values were obtained:
Format in all cases: binding
[1] = Measurement of ractopamine using fluoro-labeled Fab complex; conditions: 3.4 μg/mL Ractopamine versus absence of antigen, Ex/Em 530/580
[2] = Measurement of clenbuterol using fluoro-labeled Fab complex; conditions: 16 μg/mL Clenbuterol versus absence of antigen; Ex/Em 480/530
[3] = Measurement of cotinine using fluoro-labeled Fab complex; conditions: 3.5 μg/mL Cotinine versus absence of antigen, Ex/Em 530/580
[4] = Fluorescence enhancement of fluoro-labeled Fab complex / scFv with ketamine; conditions: for Fluorescence enhancement: 1.0 mg/mL Ketamine versus absence of antigen, Ex/Em 530/580
HSA = HSA (Homo sapiens, UniProt P02768); experiment: Fluorescence emission spectrum measurement, different-color double-label anti-SA Fab complex with HSA; conditions: antigen HSA; ratio to no antigen
Excerpt: Similarly, the different-color double-label Fab complex of the anti-SA antibody prepared in Example 1 comprising a polypeptide containing a heavy chain variable region (VH; SEQ ID NO: 12) of an anti-SA antibody labeled with a CR110, TAMRA, or ATTO 655 fluorescent dye and an antibody heavy chain constant domain (CH1; SEQ ID NO: 6), and a polypeptide containing a light chain variable region (VL; SEQ ID NO: 10) of an anti-SA antibody labeled with a dye differing from the above dye and an antibody light chain constant domain (Cκ; SEQ ID NO: 4) was reacted with antigenic HSA (0 to 100 μM), and then fluorescence intensity was measured. The ratio of the fluorescence intensity at each antigen concentration to the fluorescence intensity when no antigen was present was designated as the “fluorescence intensity ratio” and is shown in the graphs of FIG. 10. […]
Moreover, when irradiated with excitation light with a wavelength of 530 nm, fluorescence intensity ratios obtained at a fluorescence wavelength of about 530 nm in the case of CR110_TAMRA was higher than those of no_TAMRA, because of the quenching effect due to the interaction between the fluorescent dyes. […]

[5] = Measurement of cannabinoid component THC using fluoro-labeled Fab complex; conditions: 100 μg/mL THC versus absence of antigen, Ex/Em 530/580
[6] = Fluorescence enhancement of fluoro-labeled Fab complex / scFv with morphine; conditions: antigen Morphine 100 μg/mL versus absence of antigen
[7] = Fluorescence enhancement of fluoro-labeled Fab complex with MDA; conditions: antigen MDA 100 μg/mL versus absence of antigen
[8] = Fluorescence enhancement of fluoro-labeled Fab complex / scFv with cocaine; conditions: antigen Cocaine 100 μg/mL versus absence of antigen

B1: Anti-Ractopamine: same-color double-label Fab complex of anti-ractopamine antibody; TAMRA-labeled VL (SEQ ID NO: 17) and VH (SEQ ID NO: 18) (antibody, V domains shown)
VH: DVQLVESGPGLVKPSQSLSLTCTVTGYSITSDYAWNWIRQFPGNKLEWMGYIFYSGSTSYNPSLKSRISITRDTSKNQFFLQLNSVTTEDTATYFCARLAYYYDYDGYAMDYWGQGTSVTVSS
VL: DILMTQTPLSLPVSLGDQASISCRSSQNIVHSDGNTYLEWYLQKPGQSPKLLISKVSNRFSGVPDRFSGSGSGTDFTLKISRVEAEDLGIYYCFQGSHVPWTFGGGTKLEIKR
modifications: Fab; TAMRA labels; Ract-VH-18; Ract-VL-17
**Q.** With B1 as the molecule, how does the Fluorescence enhancement [1] read?
**A.** 2.3*^1

**Q.** And the Fluorescence enhancement ([1]; listed as anti-ractopamine)?
**A.** 2.3

B2: Anti-Clenbuterol: different-color double-label Fab complex of anti-clenbuterol antibody; CR110-labeled VL (SEQ ID NO: 15)+Cκ, TAMRA-labeled VH (SEQ ID NO: 16)+CH1 (antibody, V domains shown)
VH: QVKLQESGGGLVKPRGSLKLSCAASGFTFSSYDMSWVRQTPEKRLEWVASIRSGGYYTLYPDSVKGRFTISRDNVKNTLYLQMSSLRSEDTAMYYCSRDGNDEYFDVWGAGTTVTVSS
VL: DIELTQSPAILSASPGEKVTMTCSANSSVSYMHWYQQKSRTSPKLWIYDTSKLASGVPGRFSGSGSGNSYSLTISSMEAEDVATYYCFQGSKYPFTFGSGTRLEIKR
modifications: Ckappa and CH1 without entry; CR110, TAMRA labels; Clen-VH-16; Clen-VL-15
**Q.** Which Fluorescence enhancement [2] does the source give for B2 here?
**A.** 1.5

B3: Anti-cotinine: same-color double-label Fab complex of anti-cotinine antibody; TAMRA-labeled VL (SEQ ID NO: 19) and VH (SEQ ID NO: 20) (antibody, V domains shown)
VH: QQQLVESGGRLVTPGGSLTLTCTASGFSLNNYWMSWVRQAPGKGLEWIGDIHGNRGFNYHASWAKGRFTVSRTSTTVDLRMTSLTTEDTAIYFCARADDSGSHDIWGPGTLVTVSS
VL: ELDLTQTPSPVSAAVGDTVTINCQSSQSVYSAKLSWYQQKPGQPPKLLIYYGSTLASGVPSRFKGSGSGTQFSLTISDVQCADAATYYCQGTYYGPDWYFAFGGGTEVVVKR
modifications: Fab; TAMRA labels; Coti-VH-20; Coti-VL-19
**Q.** With B3 as the molecule, how does the Fluorescence enhancement [3] read?
**A.** 1.9*^2

**Q.** What about the Fluorescence enhancement ([3]; listed as anti-cotinine) of the same molecule?
**A.** 1.9

B4: Anti-Ketamine: same-color double-label Fab complex of anti-ketamine antibody; TAMRA-labeled VL (SEQ ID NO: 31) and VH (SEQ ID NO: 32) (antibody, V domains shown)
VH: QVQLKESGPGLVAPSQSLSITCTVSGFALTGYGVNWVRQPPGKGLEWLGMIWGDGNTDYNSALKSRLSISKDNSKSQVFLKMNSLQTDDTARYYCARGNGYFYVLDYWGQGTSVTVSS
VL: QAVVTQESALTTSPGETVTLTCRSSTGAVTTSNYANWVQEKPDHLFTGLIGGTNNRAPGVPARFSGSLIGDKAALTITGAQTEDEAIYFCSLWYSNHLVFGGGTKLTVLGQ
modifications: Fab; TAMRA labels; Keta-VH-32; Keta-VL-31
**Q.** For B4, which Fluorescence enhancement [4] is on record?
**A.** 2.0*^2

**Q.** And the Fluorescence enhancement ([4]; listed as anti-ketamine)?
**A.** 2.0

B5: CR110_TAMRA: different-color double-label Fab complex of anti-SA antibody; CR110-labeled VH (SEQ ID NO: 12)+CH1, TAMRA-labeled VL (SEQ ID NO: 10)+Cκ (antibody, V domains shown)
VH: EVQLLESGGGLVQPGGSLRLSCAASGFTFSSYAMSWVRQAPGKGLEWVSHISPYGANTRYADSVKGRFTISRDNSKNTLYLQMNSLRAEDTAVYYCAKGLRAFDYWGQGTLVTVSS
VL: DIQMTQSPSSLSASVGDRVTITCRASQSISSYLNWYQQKPGKAPKLLIYRASLLQSGVPSRFSGSGSGTDFTLTISSLQPEDFATYYCQQGRDRPATFGQGTKVEIKR
modifications: CH1 and Ckappa constant domains; CR110 and TAMRA labels; anti-SA antibody VH; anti-SA antibody VL
**Q.** Which maximum fluorescence enhancement (HSA) does the source give for B5 here?
**A.** 75 fold

B6: Anti-THC: same-color double-label Fab complex of anti-THC antibody; TAMRA-labeled VL (SEQ ID NO: 29) and VH (SEQ ID NO: 30) (antibody, V domains shown)
VH: EVKLVESGGGLVKPGGSLKLSCAASGFTFNNYVMVWLRQTPEKRLEWVASISRGGSTYYPDSVKGRFTISRDNARNILYLQMSSLRSEDTAMYYCVRGTTIVAGDVWGAGTTVTVSS
VL: DIVLTQSPTTMAASPGEKITITCSASSSISSNYLHWYQQKPGFSPKLLIYRTSNLASGVPARFSGSGSGTSYSLTIGTMEAEDVATYYCQQGSSIPLTFGAGTKLELKR
modifications: Fab; TAMRA labels; THC-VH-30; THC-VL-29
**Q.** What does the source list for B6?
**A.** Fluorescence enhancement [5]: 1.3*^1; Fluorescence enhancement ([5]; listed as anti-THC): 1.3

B7: Anti-Cocaine: same-color double-label Fab complex of anti-cocaine antibody; TAMRA-labeled VL (SEQ ID NO: 27) and VH (SEQ ID NO: 28) (antibody, V domains shown)
VH: DVTLQESGGGLVQPGGSMKLSCAASGFTFSDAWVDWVRQSPGKGLEWVAEIRNKANNHATKYTESVKGRFTISRDDSKSSVYLQMNSLRAEDTGIYYCTSVPQLGRGFAYWGQGTLVTVSS
VL: DIVMTQAAPSVPVTPGESVSISCRSSKSLLHSNGYTYLHWFLQRPGQSPQLLIYRVSNLASGVPDRFSGSGSGTAFTLRFSRVEAEDVGVYYCMQHLEYPFTFGSGTKLEIKR
modifications: Fab; TAMRA labels; Coca-VH-28; Coca-VL-27
**Q.** Which “Fluorescence enhancement in the presence of 100 μg/mL antigen” value (“Fluorescence enhancement in the presence” below) [6] does the source give for B7 here?
**A.** 0.9

**Q.** And the “Fluorescence enhancement in the presence” value [7]?
**A.** 0.9

**Q.** And the “Fluorescence enhancement in the presence” value [8]?
**A.** 3.7

**Q.** What about the “Fluorescence enhancement in the presence” value ([4]; antigen Ketamine 100 μg/mL versus absence of antigen) of the same molecule?
**A.** 0.9
